Experimental data published in patent US20260166085A1 (BEAM THERAPEUTICS, published 2026).
Residue numbers refer to the chain shown, from its start.

B1: ABTx251 (antibody, human IgG1, kappa, V domains shown)
VH: QVQLVQSGAAVKKPGESLKISCKGSGYRFTSYWIGWVRQMPGKGLEWMGIIYPGDSDTRYSPSFQGQVTISAGKSISTAYLQWSSLKASDTAMYYCARHGRGYDGYEGAFDIWGQGTMVTVSS
VL: AIQLTQSPSSLSASVGDRVTITCRASQGISSALAWYQQKPGKAPKLLIYDASSLESGVPSRFSGSGSGTDFTLTISSLQPEDFATYYCQQFYSYPLTFGGGTKVEIKR
B2: ABTx256 (antibody, human IgG1, kappa, V domains shown)
VH: B1 VH with G105A
VL: B1 VL with F91T
B3: ABTx258 (antibody, human IgG1, kappa, V domains shown)
VH: B1 VH with R59K, G105A
VL: B1 VL with F91V, Y92R
B4: ABTx261 (antibody, human IgG1, kappa, V domains shown)
VH: B1 VH with R59K, G105A
VL: B1 VL with F91T, Y92R
B5: ABTx262 (antibody, human IgG1, kappa, V domains shown)
VH: B1 VH with G105A
VL: B1 VL with Y92R, Y94S
B6: ABTx263 (antibody, human IgG1, kappa, V domains shown)
VH: B1 VH with R59K, E107D
VL: B1 VL with F91V
B7: ABTx265 (antibody, human IgG1, kappa, V domains shown)
VH: B1 VH with R59K, E107D
VL: B1 VL with F91T, Y92R
B8: ABTx267 (antibody, human IgG1, kappa, V domains shown)
VH: B1 VH with R59K, G105A, E107D
VL: B1 VL with F91T, Y92N, Y94S
B9: ABTx268 (antibody, human IgG1, kappa, V domains shown)
VH: B1 VH with R59K
VL: B1 VL with F91V, Y92N
B10: ABTx269 (antibody, human IgG1, kappa, V domains shown)
VH: B1 VH with R59K
VL: B1 VL with F91V
B11: ABTx270 (antibody, human IgG1, kappa, V domains shown)
VH: B1 VH with G105A
VL: B1 VL with F91V, Y92R
B12: ABTx272 (antibody, human IgG1, kappa, V domains shown)
VH: B1 VH with R59K, E107D
VL: B1 VL with F91V, Y92R
B13: ABTx273 (antibody, human IgG1, kappa, V domains shown)
VH: B1 VH
VL: B1 VL with Y92R
B14: ABTx052 variant VH_G105A (antibody, human IgG1, V domains shown)
VH: B1 VH with D104N, G105A
VL: B1 VL with Y92N
B15: ABTx052 variant VH_N104D (antibody, human IgG1, V domains shown)
VH: B1 VH
VL: B1 VL with Y92N
B16: ABTx052 variant VH_R59K (antibody, human IgG1, V domains shown)
VH: B1 VH with R59K, D104N
VL: B1 VL with Y92N
B17: ABTx052 variant VL_F91T (antibody, human IgG1, V domains shown)
VH: B1 VH with D104N
VL: AIQLTQSPSSLSASVGDRVTITCRASQGISSALAWYQQKPGKAPKLLIYDASSLESGVPSRFSGSGSGTDFTLTISSLQPEDFATYYCQQTNSYPLTFGGGTKVEIK
B18: ABTx052 variant VL_N92R (antibody, human IgG1, V domains shown)
VH: B1 VH with D104N
VL: B17 VL with T91F, N92R
B19: ABTx052 variant VL_N92Y (antibody, human IgG1, V domains shown)
VH: B1 VH with D104N
VL: B17 VL with T91F, N92Y
B20: ABTx052 variant VL_S93G (antibody, human IgG1, V domains shown)
VH: B1 VH with D104N
VL: B17 VL with T91F, S93G
B21: ABTx052 variant VL_Y94H (antibody, human IgG1, V domains shown)
VH: B1 VH with D104N
VL: B17 VL with T91F, Y94H
B22: ABTx202 (antibody, human IgG1, V domains shown)
VH: EVQLVESGGGLVQPGRSLRLSCAASGFTFDDYAMHWVRQAPGKGLEWVSGISWNSGTIGYADSVKGRFTSSRDNAKNSLYLEMNSLRAEDTALYYCAKDSPPGYCSSASCYGAFDIWGQGTMVTVSS
VL: EIVMTQSPGTLSLSPGERATLSCRASQSVSSSYLAWYQQKPGQAPRLLIYGSSTRATGIPARFSGSGSGTEFALTISSLQSEDFAVYYCQQYNFWPYTFGQGTKVEIK
B23: ABTx205 (antibody, human IgG1, V domains shown)
VH: B22 VH with S70N
VL: DIVMTQSPSFLSASVGDRVTITCRASQGISSYLAWYQQKPGKAPKLLIYAASTLQNGVPSRFSGSGSGTDFTLTITSLQPEDFATYYCQQSYSTPYTFGQGTKLEIK
B24: ABTx203 (antibody, human IgG1, V domains shown)
VH: B22 VH with S70N, S100W, P102S, Y104F, S109Y
VL: B23 VL
B25: ABTx206 (antibody, human IgG1, V domains shown)
VH: B22 VH with S70N, W117R
VL: B23 VL
B26: ABTx030 (antibody, V domains shown)
VH: QVQLQESGGGLVKPGGSLRLSCAASGFTFSSYSMNWVRQAPGKGLEWVSSIGTISSYIYYADSVKGRFTISRDNAKNSLYLQMNSLRAEDTAVYYCARDYYGGLFDYWGQGTLVTVSS
VL: not shown

Key:
[1] = biological target: T1, CC200 variant of CD117 (S261G) purified protein (human, UniProt P10721 26-520, limits assumed); assay: binding kinetics grade, FIGS. 55A-55C
T1 sequence (P10721 26-520 S261G limits assumed): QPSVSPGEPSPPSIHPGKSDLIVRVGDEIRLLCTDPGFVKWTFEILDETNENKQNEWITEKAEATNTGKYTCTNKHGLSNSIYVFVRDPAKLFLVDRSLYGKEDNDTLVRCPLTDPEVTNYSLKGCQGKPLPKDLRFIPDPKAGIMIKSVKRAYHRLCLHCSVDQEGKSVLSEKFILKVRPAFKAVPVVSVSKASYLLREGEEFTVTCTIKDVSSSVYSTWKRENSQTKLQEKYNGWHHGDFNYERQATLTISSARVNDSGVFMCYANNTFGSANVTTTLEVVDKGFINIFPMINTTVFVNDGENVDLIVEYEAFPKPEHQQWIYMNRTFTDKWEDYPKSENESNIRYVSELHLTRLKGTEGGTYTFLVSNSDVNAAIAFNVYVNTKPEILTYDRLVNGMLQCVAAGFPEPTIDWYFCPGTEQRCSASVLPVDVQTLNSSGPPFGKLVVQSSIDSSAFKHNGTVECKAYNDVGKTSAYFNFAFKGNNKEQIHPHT

[2] = biological target: T2, CC128 variant of CD117 (Y259C + N260D) purified protein (human, UniProt P10721 26-520, limits assumed); assay: binding kinetics grade, FIGS. 55A-55C
T2 construct: also called CC128-edited CD117 as purified protein
T2 sequence (P10721 26-520 Y259C/N260D limits assumed): as the sequence (P10721 26-520 S261G limits assumed) above, with Y234C, N235D, G236S counted along it

[3] = biological target: T3, Wild type CD117 purified protein (human, UniProt P10721 26-520, limits assumed); assay: binding kinetics, FIGS. 45A-45K
T3 construct: Protein used in BLI/kinetics and cryo-EM; also called wt CD117; Wt CD117
T3 sequence (P10721 26-520 limits assumed): as the sequence (P10721 26-520 S261G limits assumed) above, with G236S counted along it

[4] = biological target: T1, CC200 variant of CD117 (S261G) purified …; assay: binding kinetics, FIGS. 45A-45K
[5] = biological target: T2, CC128 variant of CD117 (Y259C + N260D) …; assay: binding kinetics, FIGS. 45A-45K
[6] = biological target: T4, Wild type CD117 expressed on cells (M07e cells, unedited human CD34+ HSPCs) (human, UniProt P10721 26-976); assay: summary Table 75 (repeats Table 73)
T4 construct: Endogenous receptor on cells; also called wtCD117; WT CD117
T4 sequence (P10721 26-976 limits assumed): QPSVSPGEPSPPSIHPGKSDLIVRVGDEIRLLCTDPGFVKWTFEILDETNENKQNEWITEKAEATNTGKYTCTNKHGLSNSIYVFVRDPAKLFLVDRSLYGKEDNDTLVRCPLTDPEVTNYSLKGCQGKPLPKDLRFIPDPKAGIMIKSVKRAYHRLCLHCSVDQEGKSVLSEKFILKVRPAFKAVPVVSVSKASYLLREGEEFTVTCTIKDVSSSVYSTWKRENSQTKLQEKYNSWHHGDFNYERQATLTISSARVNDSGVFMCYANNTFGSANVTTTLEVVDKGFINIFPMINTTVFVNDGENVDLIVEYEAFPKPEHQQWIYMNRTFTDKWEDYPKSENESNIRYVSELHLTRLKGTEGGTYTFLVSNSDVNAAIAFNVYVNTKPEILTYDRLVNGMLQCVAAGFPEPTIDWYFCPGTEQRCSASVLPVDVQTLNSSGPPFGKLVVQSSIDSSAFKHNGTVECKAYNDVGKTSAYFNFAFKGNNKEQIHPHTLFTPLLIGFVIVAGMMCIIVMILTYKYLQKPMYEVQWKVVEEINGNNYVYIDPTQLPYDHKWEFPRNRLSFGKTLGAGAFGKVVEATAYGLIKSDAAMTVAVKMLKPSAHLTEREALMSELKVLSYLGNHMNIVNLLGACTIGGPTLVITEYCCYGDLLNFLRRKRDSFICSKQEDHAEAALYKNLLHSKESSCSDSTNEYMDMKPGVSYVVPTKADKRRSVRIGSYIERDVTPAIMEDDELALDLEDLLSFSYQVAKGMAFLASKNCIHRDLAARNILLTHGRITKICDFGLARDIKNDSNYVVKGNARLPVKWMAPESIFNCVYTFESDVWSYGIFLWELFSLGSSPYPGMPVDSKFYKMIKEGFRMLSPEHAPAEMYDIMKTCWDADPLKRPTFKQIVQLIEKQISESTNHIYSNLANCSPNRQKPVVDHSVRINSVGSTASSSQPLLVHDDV

[7] = biological target: T3, Wild type CD117 purified protein; assay: monovalent KD, CD117 titrated (FIGS. 73A-73E)
[8] = biological target: T3, Wild type CD117 purified protein; assay: summary Table 75 (repeats Table 71)
[9] = biological target: T4, Wild type CD117 expressed on cells …; assay: flow cytometry on M07e cells, AF647 secondary (FIG. 76A)
[10] = biological target: T3, Wild type CD117 purified protein; assay: KD, method not stated (Table 8B)
Cyno CD117 = biological target: T5, Cyno CD117 (cynomolgus, UniProt F6V858 26-520 (rhesus entry)); assay: KD, method not stated (Table 8B)
T5 construct: also called cynomolgus CD117
T5 sequence (chain, as listed by the source): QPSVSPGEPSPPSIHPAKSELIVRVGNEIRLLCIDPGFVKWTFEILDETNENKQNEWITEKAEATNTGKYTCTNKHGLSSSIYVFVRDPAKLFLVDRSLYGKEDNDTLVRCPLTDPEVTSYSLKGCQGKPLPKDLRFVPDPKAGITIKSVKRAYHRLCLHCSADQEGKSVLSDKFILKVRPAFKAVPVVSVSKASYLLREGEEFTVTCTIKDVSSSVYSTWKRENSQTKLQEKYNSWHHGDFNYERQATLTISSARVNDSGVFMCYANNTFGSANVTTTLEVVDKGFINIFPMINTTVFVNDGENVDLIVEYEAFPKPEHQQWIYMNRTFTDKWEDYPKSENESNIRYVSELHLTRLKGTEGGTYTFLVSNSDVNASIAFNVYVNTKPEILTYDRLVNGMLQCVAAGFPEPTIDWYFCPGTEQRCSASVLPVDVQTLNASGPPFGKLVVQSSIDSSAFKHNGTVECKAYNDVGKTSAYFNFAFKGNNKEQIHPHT

Binder	binding result [1]	binding result [2]	Kd [3]	koff [3]	kon [3]	other results
B1	no binding	no binding	–	–	–	–
B2	no binding	no binding	–	–	–	–
B3	no binding	no binding	–	–	–	–
B4	no binding	no binding	–	–	–	–
B5	no binding	no binding	–	–	–	–
B6	no binding	no binding	–	–	–	–
B7	no binding	no binding	–	–	–	–
B8	no binding	no binding	–	–	–	–
B9	no binding	no binding	–	–	–	–
B10	no binding	no binding	–	–	–	–
B11	no binding	no binding	–	–	–	–
B12	no binding	no binding	–	–	–	–
B13	no binding	no binding	–	–	–	–
B14	–	–	0.254 nM	0.000153 s⁻¹	601000 M⁻¹ s⁻¹	–
B15	–	–	0.495 nM	0.000342 s⁻¹	691000 M⁻¹ s⁻¹	–
B16	–	–	0.986 nM	0.000713 s⁻¹	723000 M⁻¹ s⁻¹	binding result [4]: no binding; binding result [5]: no binding
B17	–	–	0.191 nM	0.000104 s⁻¹	543000 M⁻¹ s⁻¹	–
B18	–	–	0.683 nM	0.000434 s⁻¹	635000 M⁻¹ s⁻¹	binding result [4]: no binding; binding result [5]: no binding
B19	–	–	0.841 nM	0.000635 s⁻¹	755000 M⁻¹ s⁻¹	binding result [4]: no binding; binding result [5]: no binding
B20	–	–	0.0716 nM	4.81e-05 s⁻¹	671000 M⁻¹ s⁻¹	–
B21	–	–	3.16 nM	0.00178 s⁻¹	563000 M⁻¹ s⁻¹	binding result [4]: no binding; binding result [5]: no binding
B22	–	–	–	–	–	EC50 [6]: 7.98 nM; Kd [7]: 2.42 nM; koff [7]: 0.00014 s⁻¹; kon [7]: 57800 M⁻¹ s⁻¹; Kd [8]: 2.42 nM; EC50 [9]: 7.98 nM
B23	–	–	–	–	–	EC50 [6]: 7.48 nM; Kd [7]: 2.07 nM; koff [7]: 0.000117 s⁻¹; kon [7]: 56600 M⁻¹ s⁻¹; Kd [8]: 2.07 nM; EC50 [9]: 7.48 nM
B24	–	–	–	–	–	EC50 [6]: 5.56 nM; Kd [7]: 6.62 nM; koff [7]: 0.000643 s⁻¹; kon [7]: 97100 M⁻¹ s⁻¹; Kd [8]: 6.62 nM; EC50 [9]: 5.56 nM
B25	–	–	–	–	–	EC50 [6]: 14.2 nM; Kd [7]: 1.26 nM; koff [7]: 5.07e-05 s⁻¹; kon [7]: 40300 M⁻¹ s⁻¹; Kd [8]: 1.26 nM; EC50 [9]: 14.2 nM
B26	–	–	–	–	–	Kd [10]: 0.449 nM; Kd (Cyno CD117): 0.83 nM
